Reference: the supplement of paper PMC10065799, “High-throughput profiling of sequence recognition by tyrosine kinases and SH2 domains using bacterial peptide display” (eLife, 2023)

How the values were obtained:
[1] = molecular target: EPHB2 (UniProt P29323); experiment: phosphorylation enrichment, bacterial display (enrichment ratio); higher = better substrate or ligand; peptides without Tyr show the background
[2] = tested on: AncSZ; experiment: as above
[3] = molecular target: Jak2 (UniProt O60674); experiment: as above
[4] = molecular target: MERTK (UniProt Q12866); experiment: as above
MERTK, sequence (Q12866 whole entry, looked up): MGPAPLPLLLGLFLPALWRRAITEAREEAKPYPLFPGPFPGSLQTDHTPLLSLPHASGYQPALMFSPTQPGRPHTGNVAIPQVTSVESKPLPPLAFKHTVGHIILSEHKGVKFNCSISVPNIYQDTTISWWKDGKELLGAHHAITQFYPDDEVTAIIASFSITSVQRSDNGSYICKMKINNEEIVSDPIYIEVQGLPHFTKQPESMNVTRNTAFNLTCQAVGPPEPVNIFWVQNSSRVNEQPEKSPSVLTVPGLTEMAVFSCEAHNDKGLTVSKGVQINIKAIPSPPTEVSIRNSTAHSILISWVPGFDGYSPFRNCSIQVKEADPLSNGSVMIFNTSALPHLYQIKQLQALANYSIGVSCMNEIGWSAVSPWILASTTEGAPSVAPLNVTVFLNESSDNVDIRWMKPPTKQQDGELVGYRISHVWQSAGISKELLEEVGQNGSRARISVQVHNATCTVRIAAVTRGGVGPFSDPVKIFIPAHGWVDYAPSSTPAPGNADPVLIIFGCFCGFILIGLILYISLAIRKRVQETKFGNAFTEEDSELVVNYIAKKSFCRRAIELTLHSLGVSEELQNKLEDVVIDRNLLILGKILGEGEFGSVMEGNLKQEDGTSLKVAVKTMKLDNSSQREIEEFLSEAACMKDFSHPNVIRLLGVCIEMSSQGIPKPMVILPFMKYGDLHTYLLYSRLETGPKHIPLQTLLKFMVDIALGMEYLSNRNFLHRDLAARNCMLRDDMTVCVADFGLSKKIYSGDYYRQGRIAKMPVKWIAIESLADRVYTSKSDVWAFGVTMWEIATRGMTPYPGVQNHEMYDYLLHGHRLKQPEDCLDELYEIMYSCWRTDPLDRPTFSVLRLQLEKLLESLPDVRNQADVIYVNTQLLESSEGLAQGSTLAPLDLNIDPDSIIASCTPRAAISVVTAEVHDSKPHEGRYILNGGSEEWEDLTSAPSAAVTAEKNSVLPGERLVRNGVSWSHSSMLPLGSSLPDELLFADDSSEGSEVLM

[5] = tested on: c-Src; experiment: as above
[6] = molecular target: Hck (UniProt P08631); experiment: as above
[7] = molecular target: Fes (UniProt P07332); experiment: as above
Fes, sequence (P07332 whole entry, looked up): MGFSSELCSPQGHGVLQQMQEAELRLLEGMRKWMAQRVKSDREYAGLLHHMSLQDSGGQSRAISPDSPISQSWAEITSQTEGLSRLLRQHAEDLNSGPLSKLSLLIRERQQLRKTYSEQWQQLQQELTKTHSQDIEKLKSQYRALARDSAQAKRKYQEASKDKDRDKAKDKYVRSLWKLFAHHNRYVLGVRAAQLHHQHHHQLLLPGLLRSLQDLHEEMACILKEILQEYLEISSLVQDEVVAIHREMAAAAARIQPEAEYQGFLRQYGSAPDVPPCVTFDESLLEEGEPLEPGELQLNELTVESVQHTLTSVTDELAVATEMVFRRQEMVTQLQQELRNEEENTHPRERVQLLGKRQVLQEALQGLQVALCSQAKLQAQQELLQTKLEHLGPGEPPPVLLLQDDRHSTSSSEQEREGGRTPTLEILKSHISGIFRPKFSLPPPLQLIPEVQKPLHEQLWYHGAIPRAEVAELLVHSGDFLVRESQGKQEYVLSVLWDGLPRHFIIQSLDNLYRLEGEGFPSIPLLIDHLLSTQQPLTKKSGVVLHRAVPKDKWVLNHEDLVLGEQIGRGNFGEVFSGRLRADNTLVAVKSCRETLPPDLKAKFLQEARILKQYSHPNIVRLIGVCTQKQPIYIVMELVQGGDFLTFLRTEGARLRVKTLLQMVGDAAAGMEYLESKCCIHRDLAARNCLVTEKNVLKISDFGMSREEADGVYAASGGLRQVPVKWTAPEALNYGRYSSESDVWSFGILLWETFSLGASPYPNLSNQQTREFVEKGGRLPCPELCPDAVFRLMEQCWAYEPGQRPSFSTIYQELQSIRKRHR

[8] = molecular target: EPHB1 (UniProt P54762); experiment: as above
EPHB1, sequence (P54762 whole entry, looked up): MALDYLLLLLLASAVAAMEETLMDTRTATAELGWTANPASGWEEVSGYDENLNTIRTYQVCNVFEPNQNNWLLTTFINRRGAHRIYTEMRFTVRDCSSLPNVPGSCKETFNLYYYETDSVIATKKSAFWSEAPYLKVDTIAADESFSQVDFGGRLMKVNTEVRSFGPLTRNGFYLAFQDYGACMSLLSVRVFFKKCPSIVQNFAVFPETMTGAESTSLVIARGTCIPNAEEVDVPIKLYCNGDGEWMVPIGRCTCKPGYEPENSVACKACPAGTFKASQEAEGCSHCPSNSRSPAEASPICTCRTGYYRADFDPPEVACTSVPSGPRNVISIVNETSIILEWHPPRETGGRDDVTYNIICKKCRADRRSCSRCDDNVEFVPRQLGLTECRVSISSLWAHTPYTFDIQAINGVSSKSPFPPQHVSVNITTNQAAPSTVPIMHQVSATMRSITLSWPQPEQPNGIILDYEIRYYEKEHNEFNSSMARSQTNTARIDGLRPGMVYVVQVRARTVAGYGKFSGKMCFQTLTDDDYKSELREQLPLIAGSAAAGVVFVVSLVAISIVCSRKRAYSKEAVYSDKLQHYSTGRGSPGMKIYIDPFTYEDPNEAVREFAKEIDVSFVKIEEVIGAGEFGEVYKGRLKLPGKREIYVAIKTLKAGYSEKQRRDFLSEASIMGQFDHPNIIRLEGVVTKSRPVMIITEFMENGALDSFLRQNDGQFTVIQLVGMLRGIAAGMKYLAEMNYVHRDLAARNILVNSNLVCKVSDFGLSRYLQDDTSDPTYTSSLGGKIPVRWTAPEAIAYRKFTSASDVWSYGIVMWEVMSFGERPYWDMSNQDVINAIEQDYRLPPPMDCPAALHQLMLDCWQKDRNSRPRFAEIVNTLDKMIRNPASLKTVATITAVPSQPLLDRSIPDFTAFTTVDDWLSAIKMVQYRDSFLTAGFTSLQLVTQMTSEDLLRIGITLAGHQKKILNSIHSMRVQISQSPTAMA

[9] = molecular target: FGFR3 (UniProt P22607); experiment: as above
[10] = tested on: Fer (mouse); experiment: as above
[11] = molecular target: FGFR1 (UniProt P11362); experiment: as above
FGFR1, sequence (P11362 whole entry, looked up): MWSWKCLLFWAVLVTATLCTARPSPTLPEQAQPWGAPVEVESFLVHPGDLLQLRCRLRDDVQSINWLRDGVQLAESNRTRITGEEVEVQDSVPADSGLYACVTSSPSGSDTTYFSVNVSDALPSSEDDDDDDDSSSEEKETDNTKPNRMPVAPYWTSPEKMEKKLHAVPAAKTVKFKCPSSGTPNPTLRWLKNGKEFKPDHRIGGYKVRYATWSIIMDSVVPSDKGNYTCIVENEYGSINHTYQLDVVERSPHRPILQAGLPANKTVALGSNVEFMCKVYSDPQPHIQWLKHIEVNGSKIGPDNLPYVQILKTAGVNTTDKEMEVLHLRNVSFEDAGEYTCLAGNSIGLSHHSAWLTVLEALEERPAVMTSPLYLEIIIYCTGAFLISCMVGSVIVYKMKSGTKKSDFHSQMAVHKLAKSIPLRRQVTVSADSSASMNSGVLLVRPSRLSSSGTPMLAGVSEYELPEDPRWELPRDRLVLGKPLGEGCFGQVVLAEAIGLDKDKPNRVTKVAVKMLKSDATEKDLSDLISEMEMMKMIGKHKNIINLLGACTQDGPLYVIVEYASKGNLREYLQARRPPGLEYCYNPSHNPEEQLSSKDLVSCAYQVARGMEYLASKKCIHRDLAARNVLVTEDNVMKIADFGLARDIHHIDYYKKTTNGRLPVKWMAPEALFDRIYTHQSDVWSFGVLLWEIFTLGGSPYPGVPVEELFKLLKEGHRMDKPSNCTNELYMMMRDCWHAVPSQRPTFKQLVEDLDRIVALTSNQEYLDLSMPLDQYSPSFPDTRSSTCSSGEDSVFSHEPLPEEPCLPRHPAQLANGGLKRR

[12] = molecular target: Fyn (UniProt P06241); experiment: as above
[13] = tested on: c-Abl (mouse); experiment: as above
[14] = molecular target: Grb2 SH2 (UniProt P62993); experiment: SH2 binding enrichment of the phosphorylated peptide, bacterial display (enrichment ratio); higher = better substrate or ligand; peptides without Tyr show the background
[15] = molecular target: SHP2-C SH2; experiment: as above
[16] = molecular target: c-Src SH2; experiment: as above
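For SH2 binding enrichment of the phosphorylated peptide, bacterial display in this document: peptide library displayed on the E. coli surface as eCPX fusions, selected cells deep-sequenced, score is each peptide's frequency after selection divided by its frequency in the input.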
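For phosphorylation enrichment, bacterial display in this document: 11-residue human phosphosite peptides and single-mutation variants displayed on the E. coli surface, counted by deep sequencing, each peptide's frequency after selection divided by its frequency in the unselected input library; frequency after pTyr selection over input frequency; kinase dosed for 20-30% of maximal phosphorylation in three min.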

EPHB2, sequence (P29323 whole entry, looked up): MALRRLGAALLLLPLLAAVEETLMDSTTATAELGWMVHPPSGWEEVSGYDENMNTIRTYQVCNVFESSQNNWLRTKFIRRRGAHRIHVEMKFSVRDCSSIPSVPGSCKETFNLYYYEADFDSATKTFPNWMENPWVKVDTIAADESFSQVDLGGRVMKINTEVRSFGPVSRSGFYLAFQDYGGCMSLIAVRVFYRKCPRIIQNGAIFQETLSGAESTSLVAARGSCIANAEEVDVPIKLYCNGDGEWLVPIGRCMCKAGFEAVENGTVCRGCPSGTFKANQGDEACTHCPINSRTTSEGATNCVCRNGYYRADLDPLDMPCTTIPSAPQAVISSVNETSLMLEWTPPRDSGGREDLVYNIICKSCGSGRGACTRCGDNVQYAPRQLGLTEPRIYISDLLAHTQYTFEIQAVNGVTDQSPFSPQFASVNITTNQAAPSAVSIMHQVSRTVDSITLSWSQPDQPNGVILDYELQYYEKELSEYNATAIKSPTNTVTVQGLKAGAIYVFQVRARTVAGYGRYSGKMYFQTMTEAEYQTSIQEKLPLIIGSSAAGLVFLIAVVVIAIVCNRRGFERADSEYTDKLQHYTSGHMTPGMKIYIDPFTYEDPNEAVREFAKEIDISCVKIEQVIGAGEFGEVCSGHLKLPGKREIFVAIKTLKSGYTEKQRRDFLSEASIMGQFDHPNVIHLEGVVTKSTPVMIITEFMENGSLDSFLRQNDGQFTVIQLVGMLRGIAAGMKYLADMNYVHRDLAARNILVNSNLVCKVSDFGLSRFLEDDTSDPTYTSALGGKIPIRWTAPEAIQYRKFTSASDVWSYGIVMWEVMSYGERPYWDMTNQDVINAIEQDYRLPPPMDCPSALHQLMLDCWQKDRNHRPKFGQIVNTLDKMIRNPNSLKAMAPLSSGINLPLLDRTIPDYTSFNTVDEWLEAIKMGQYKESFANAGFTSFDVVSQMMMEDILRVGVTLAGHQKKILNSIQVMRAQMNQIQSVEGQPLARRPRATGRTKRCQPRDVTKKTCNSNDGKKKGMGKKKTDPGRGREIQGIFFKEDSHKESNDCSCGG

SH2 binding enrichment [14]	SH2 binding enrichment [15]	SH2 binding enrichment [16]	Sequence	phosphorylation enrichment [1]	phosphorylation enrichment [2]	phosphorylation enrichment [3]	phosphorylation enrichment [4]	phosphorylation enrichment [5]	phosphorylation enrichment [6]	phosphorylation enrichment [7]	phosphorylation enrichment [8]	phosphorylation enrichment [9]	phosphorylation enrichment [10]	phosphorylation enrichment [11]	phosphorylation enrichment [12]	phosphorylation enrichment [13]
0.734	0.574	0.678	HCFNSYTFPRL [PAK7_Y316_S312C_YF]	0.743	1.94	1.31	0.591	0.469	0.564	1.72	0.752	0.978	0.804	0.713	0.707	0.795
0.766	0.962	0.433	HFMKLYEEKTG [PARP1_Y618]	0.46	0.862	0.592	0.438	0.425	0.519	0.663	0.482	1.08	0.277	0.464	0.282	0.355
0.772	0.693	5.15	HIKHNYECLVY [XRCC5_Y416]	2.44	1.05	0.935	0.548	1.78	0.638	1.05	2.87	0.839	0.514	0.924	0.868	0.882
1.1	1.12	0.862	HIPFRYPKEFQ [IDS_Y234]	0.641	0.826	0.815	0.645	0.756	0.564	1.26	0.521	0.66	0.344	0.442	0.424	0.946
0.956	0.605	1.02	HLVSEYQQYQD [TUBB3_Y422_D417H]	1.11	1.78	1.29	0.482	0.939	1.21	1.61	1.07	1.05	0.72	0.868	0.652	0.98
0.851	0.846	0.575	HRAVEYLLTGI [RAD23A_Y197]	0.636	0.991	0.736	0.549	0.458	0.7	1.02	0.846	0.817	0.488	0.8	0.739	0.709
0.842	0.938	10.9	HRDSSYYWEIE [RAF1_Y340_Q335H]	1.72	1.69	1.03	4.59	1.92	1.47	1.67	3.07	4.34	0.612	6.05	1.97	0.818
1.01	1.1	0.567	HSDYQYGQRSQ [PKP2_Y168_S169G]	0.335	0.618	0.446	0.439	0.402	0.574	0.44	0.449	0.457	0.478	0.357	0.578	0.484
0.931	0.647	0.541	HVEAVYIDIAD [PITPNA_Y140]	1.27	1.39	0.922	0.708	1.87	0.837	1.18	2.52	2.96	2.23	5.13	1.14	0.831
1.03	0.938	5.15	HVKHNYECLVY [XRCC5_Y416_I412V]	2.04	1.06	1.12	0.519	2.04	0.842	1.2	2.87	1.12	0.573	0.75	0.922	1.01
0.946	0.703	0.657	IAINKYGVSLI [MYO7A_Y2136]	0.613	0.837	1.01	0.426	0.441	0.497	1.12	0.608	0.594	0.527	0.619	0.432	0.744
0.852	0.813	0.459	ICTVDYLLRLQ [RYR1_Y3921]	0.618	1.21	1.12	0.428	0.444	0.542	1.41	0.659	0.733	0.736	0.529	0.539	0.966
0.731	0.814	0.771	IDSTPYRQWYE [RPS8_Y109]	0.501	1.28	0.79	0.424	0.606	0.514	1.05	0.455	0.753	0.51	0.521	0.492	0.608
0.656	0.777	0.476	IENKLCGMSDP [RET_Y1062_Y1062C]	0.652	0.987	0.775	0.428	0.412	0.562	1.09	0.693	0.774	0.536	0.687	0.522	0.625
1.2	0.821	0.719	IEPCIYIPEDD [XPNPEP3_Y455_G453C]	0.603	1.23	1.25	0.428	0.513	0.696	1.47	0.648	0.87	0.6	0.738	0.563	0.862
0.835	0.607	0.48	IFQASYFRRGD [LTK_Y676_R673Q_YF]	0.518	1.05	1.18	0.628	0.543	0.517	1.23	0.516	0.619	0.416	0.544	0.499	0.789

Further lines, the sequence ahead of its results:

Sequence	SH2 binding enrichment [14]	SH2 binding enrichment [15]	SH2 binding enrichment [16]	phosphorylation enrichment [1]	phosphorylation enrichment [2]	phosphorylation enrichment [3]	phosphorylation enrichment [4]	phosphorylation enrichment [5]	phosphorylation enrichment [6]	phosphorylation enrichment [7]	phosphorylation enrichment [8]	phosphorylation enrichment [9]	phosphorylation enrichment [10]	phosphorylation enrichment [11]	phosphorylation enrichment [12]	phosphorylation enrichment [13]
HEHVGYTTLNR [CHN1_Y148_Y143H]	0.88	61.4	3.47	0.429	0.63	0.669	0.44	0.618	0.57	0.667	0.498	0.744	0.351	0.573	0.489	0.936
HKLSFCEFDFE [BTK_Y40_Y40C_YF]	1.11	0.937	0.622	0.787	3.33	2.48	0.776	1.03	0.83	3.4	0.934	1.34	0.965	0.844	0.764	1.78
HNLDYYKQTTN [FGFR3_Y648_K650Q]	0.656	0.883	0.839	0.536	0.979	1.27	0.658	0.476	0.704	1.01	0.786	2.61	0.585	3.5	0.714	0.793
HNLPIYEGYAL [ACTA1_Y168_V165L]	0.835	0.714	2.85	22.7	1.24	0.566	6.51	6.97	9.09	1.16	17	0.64	19.3	0.547	11.6	2.79
IDDNQYAYLKA [HNF4A_Y286_E285Q]	0.87	0.898	1.47	0.667	0.993	0.753	0.876	0.48	2.12	0.91	0.558	1.69	1	2.93	0.668	1.02
IEDPFYGNDSD [ACP1_Y133_YF]	0.942	0.855	0.529	0.65	1.51	2.17	0.487	0.75	0.628	1.55	0.782	0.966	0.755	0.643	0.556	1.1
IFGVSYDEYRY [CFTR_Y512]	0.776	0.896	1.36	0.504	0.932	0.882	0.434	1.27	0.617	1.05	0.557	0.664	0.496	0.688	0.644	0.638
IFRASYFRKGG [ALK_Y1282_YF]	0.589	0.513	0.461	0.621	1.02	1.11	0.706	0.688	0.674	0.899	0.55	0.625	0.581	0.518	0.619	0.721
IGCHAYGDQYR [IDH1_Y135_R132C]	0.687	0.59	0.551	0.556	1.04	0.979	0.384	0.493	0.5	1.19	0.593	0.741	0.569	0.634	0.424	0.796
IGGHAYGDQYR [IDH1_Y135_R132G]	0.776	0.548	0.416	0.368	0.52	0.431	0.357	0.36	0.428	0.59	0.405	0.382	0.448	0.364	0.382	0.386
IGKDLYANNVL [ACTA2_Y296_R292G]	0.844	0.574	0.535	0.634	1.2	1.03	0.556	0.55	0.775	1.15	0.679	0.64	0.619	0.45	0.526	0.77
IGLHAYGDQYR [IDH1_Y135_R132L]	0.847	0.599	0.469	0.487	0.681	0.563	0.426	0.473	0.529	0.834	0.469	0.598	0.48	0.46	0.498	0.561
IGRHAYGDQYR [IDH1_Y135]	1.03	0.681	0.657	0.406	0.56	0.534	0.314	0.381	0.327	0.599	0.434	0.447	0.417	0.398	0.371	0.462
